Experimental data from PMC4222082, “Nitrogen starvation-induced transcriptome alterations and influence of transcription regulator mutants in Mycobacterium smegmatis”.

T1: MBP-GlnR (Mycobacterium smegmatis (SMR5?)) (UniProt A0R4C4)
T1 sequence: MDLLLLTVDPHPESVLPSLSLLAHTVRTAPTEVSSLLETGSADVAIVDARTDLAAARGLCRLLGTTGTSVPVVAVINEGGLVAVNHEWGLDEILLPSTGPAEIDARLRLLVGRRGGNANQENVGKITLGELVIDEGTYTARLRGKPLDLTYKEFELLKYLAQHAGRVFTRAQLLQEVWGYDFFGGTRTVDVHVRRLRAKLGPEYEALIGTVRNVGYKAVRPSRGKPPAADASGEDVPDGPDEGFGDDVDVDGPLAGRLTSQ

T2: MBP-GlnR (Mycobacterium smegmatis, UniProt A0R4C4 1-261)
T2 sequence: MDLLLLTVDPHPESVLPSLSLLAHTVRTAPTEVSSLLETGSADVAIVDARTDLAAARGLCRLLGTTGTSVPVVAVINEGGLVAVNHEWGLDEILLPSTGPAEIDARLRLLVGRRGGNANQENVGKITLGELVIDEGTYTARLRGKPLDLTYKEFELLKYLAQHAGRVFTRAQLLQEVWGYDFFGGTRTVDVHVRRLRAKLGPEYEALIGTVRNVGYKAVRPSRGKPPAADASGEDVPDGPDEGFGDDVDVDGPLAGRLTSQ


Assays:
[1] = target: T1, MBP-GlnR (Mycobacterium smegmatis (SMR5?)); test: EMSA; conditions: GlnR: DIG Gel Shift Kit (Roche) buffer, 6% native PAGE, 0.5x TBE; AmtR: 20 mM Tris-HCl pH 7.9, 25 mM KCl, 1 mM DTT, 5 mM MgCl2, 0.5 mg/ml BSA, 5% glycerol …
MBP-GlnR [2] = target: T2, MBP-GlnR; test: competition; 1000-fold excess vs 220 bp amtB probe; GlnR: DIG Gel Shift Kit (Roche) buffer, 6% native PAGE, 0.5x TBE; AmtR: 20 mM Tris-HCl pH 7.9, 25 mM KCl, 1 mM DTT, 5 mM MgCl2, 0.5 mg/ml BSA, 5% glycerol, 2 ug sperm DNA, 25 C 30 min; conditions: protein: recombinant; (pMal-c2-glnR); chain copies: 2; label: digoxigenin when used as probe
MBP-GlnR [3] = target: T2, MBP-GlnR; test: competition; 1000-fold excess vs fragment 6 probe; GlnR: DIG Gel Shift Kit (Roche) buffer, 6% native PAGE, 0.5x TBE; AmtR: 20 mM Tris-HCl pH 7.9, 25 mM KCl, 1 mM DTT, 5 mM MgCl2, 0.5 mg/ml BSA, 5% glycerol, 2 ug sperm DNA, 25 C 30 min; conditions: protein: recombinant; (pMal-c2-glnR); chain copies: 2

Row | Molecule | binding [1] | other results
1 | GGTGCCGACCGCCCCGACGACGAGCGCGGCCACCGCCGCGACGAACCCGACCACCAGTCTGCGCACCGGGACATTGTTGCCCACGAGACCGGCAAAGATTCGCTCGGCGCGGCTGACGAGCAGGTGAGGCGTTATCCTCGTAACACCAAAGGCCGGTAACGGCTACATGTCAGTCATGAATCCGGAAGATCACCCGACACCGGCGTCTGTGTTCTCCCGCAGAGATTCCTGACGAGCCGGGAGGACTTG (double strand) [glnR upstream] | no binding | 
2 | AGGCTTTTCGCCGGCTGCTGTGATCACACCAAGATCGTCGGCGCAGTCGATGACCTAGATGTTGTCGTGAAGTTTCAAGAATGTGACGTCATCAGTCGGCGGCTGCGTCGACCGCCAGCAGCAGTCGCAACGCGCCCGCATCGCGAGGGACTGCCGGGTCGAGGCCGGTACTGCTGGTCACCCTGGCCAGTCGGTTGATGACGGTGTTGCGATGGCAGTAGAGCCTGCGAGCGGTCTCGGTGACGGAACCGGTGTCGAGATAGATGCGCAGCGTGTCCGTGAGCAAGGTCTGATCGCGCG (double strand) [msmeg_3400 upstream] | binds | 
3 | GTGGCGCGGCAGGGCGGCCACGGGCAGGCCCTGCTGGTCTTCGACACCGGTGACGGCCGCACGCTGCAGACCCATCCGCTTCCCGAGGCCACCGGCTGGCCGGTCGGGGTATCGATCGGCCACGACGGCCGCGTGGTCACCGCGACGAGTGACGGGCAAGTGTATGGCTTCTCACCGGCATGATGCCGGAAGTTTTACAGGGAATTGACGAAATCTCCACAGAAAGTGGTGGGCTTCGTGTGAGGATTTGGCGCGGCAACCGTGCAAGATCAATGAATTTCTGGGGGAAGGCAATAACCA (double strand) [msmeg_1052 upstream] | no binding | 
4 | GCGAGGCAGACTAGCGGCATGACCGATGACGGCTACACAGTCGGTGACTACCTCCTGGACCGGCTCGCCGAACTCGGCGTGACCGAGGTCTTCGGCGTCCCCGGCGACTATCAGCTGGAGTTCCTCGACCACGTCGTGGCGCACCCGCGCATCACGTGGGTCGGCGGCGCGAACGAACTCAACGCGGGCTACGCGGCCGACGGCTACGGCCGGCTGCGGGGCATGGCGGCGTTGGTCACCACGTTCGGCGTCGGTGAGCTCTCGGCGGCCAACGCCATCGCAGGCAGCTACGCCGAGCAC (double strand) [msmeg_5734 upstream] | no binding | 
5 | amtB fragment 6 (dsDNA) DNA 1: TGCGTTCACTTTCCGGAAACGCAACGGCAGCACCGGCGAAACGCCGGCAA DNA 2: TTGCCGGCGTTTCGCCGGTGCTGCCGTTGCGTTTCCGGAAAGTGAACGCA |  | binding result (MBP-GlnR [2]): binds
6 | amtB fragment 6.1 (dsDNA) DNA 1: TGCGTTCACTTTCCGGAAACGCAAC DNA 2: GTTGCGTTTCCGGAAAGTGAACGCA |  | binding result (MBP-GlnR [3]): binds
